In paper PMC11890623, “Pseudomonas aeruginosa acyl-CoA dehydrogenases and structure-guided inversion of their substrate specificity” (Nature Communications, 2025) one finds stoichiometry N and Km data, which are given here for 3 substances.

Data set [1] has as its target FadE1 (PA0506), fatty acyl-CoA dehydrogenase of Pseudomonas aeruginosa (Pseudomonas aeruginosa PAO1). Put plainly: AUC; sedimentation at 50000 rpm, 20 °C; protein at 1 mg/mL in 20 mM Tris-HCl, 100 mM NaCl, 10 mM imidazole (pH 7.5); absorbance and interference scans; analysis with SEDFIT; His6 tags removed.
Data set [2] relates to T1, CCCCCCCCCCCCCCCC(=O)SCCNC(=O)CCNC(=O)[C@H](O)C(C)(C)COP(=O)(O)OP(=O)(O)OC[C@H]1O[C@@H](n2cnc3c(N)ncnc32)[C@H](O)[C@@H]1OP(=O)(O)O.
T1 construct: full-length ORF, His6 tag removed by TEV
Put plainly: Michaelis-Menten kinetics of purified enzyme (KM). Format: biochemical, Pseudomonas aeruginosa. To be noted: FAD.

Data set [3] relates to T2, CCCCCCCC(=O)SCCNC(=O)CCNC(=O)[C@H](O)C(C)(C)COP(=O)(O)OP(=O)(O)OC[C@H]1O[C@@H](n2cnc3c(N)ncnc32)[C@H](O)[C@@H]1OP(=O)(O)O.
T2 construct: full-length ORF, His6 tag removed by TEV
Kind of data set: purified protein. It is filed as biochemical, Pseudomonas aeruginosa. As to conditions: FAD sandwiched between catalytic Glu441 and the FAD.

Data set [4] concerns the target FadE2 (PA0508), fatty acyl-CoA dehydrogenase of Pseudomonas aeruginosa (Pseudomonas aeruginosa PAO1). Put plainly: AUC; sedimentation at 50000 rpm, 20 °C; protein at 1 mg/mL in 20 mM Tris-HCl, 100 mM NaCl, 10 mM imidazole (pH 7.5); absorbance and interference scans; analysis with SEDFIT; His6 tags removed.

As to “FadE1 (PA0506), fatty acyl-CoA dehydrogenase of Pseudomonas aeruginosa (enzyme)”, the stoichiometry N in data set [1] is 2.

Take FadE1 (Pseudomonas aeruginosa PAO1): the Michaelis-Menten constant (Km) in data set [2] was found to be 16.36 ± 2.09 µM; in data set [3], 12.29 ± 1.43 µM.

In turn, “FadE2 (PA0508), fatty acyl-CoA dehydrogenase of Pseudomonas aeruginosa (enzyme)” returned a stoichiometry N in data set [4] of 2.
